# According to article PMC5155689, “Pro-invasive Effect of Proto-oncogene PBF Is Modulated by an Interaction with Cortactin” (The Journal of Clinical Endocrinology and Metabolism, 2016):
# T1: Y174A PBF-HA (UniProt P53801 33-180, Y174A)
# T1 construct: also called PBF mutant Y174A; phospho-null PBF mutant (Y174A)
# T1 sequence (looked up): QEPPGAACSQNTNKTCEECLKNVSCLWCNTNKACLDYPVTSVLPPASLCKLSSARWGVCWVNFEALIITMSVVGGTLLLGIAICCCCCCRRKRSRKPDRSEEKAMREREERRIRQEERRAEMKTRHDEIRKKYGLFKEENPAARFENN
# B1: human Myc-CTTN (cortactin) (natural protein, UniProt Q14247 1-550, looked up)
# chain: MWKASAGHAVSIAQDDAGADDWETDPDFVNDVSEKEQRWGAKTVQGSGHQEHINIHKLRENVFQEHQTLKEKELETGPKASHGYGGKFGVEQDRMDKSAVGHEYQSKLSKHCSQVDSVRGFGGKFGVQMDRVDQSAVGFEYQGKTEKHASQKDYSSGFGGKYGVQADRVDKSAVGFDYQGKTEKHESQRDYSKGFGGKYGIDKDKVDKSAVGFEYQGKTEKHESQKDYVKGFGGKFGVQTDRQDKCALGWDHQEKLQLHESQKDYKTGFGGKFGVQSERQDSAAVGFDYKEKLAKHESQQDYSKGFGGKYGVQKDRMDKNASTFEDVTQVSSAYQKTVPVEAVTSKTSNIRANFENLAKEKEQEDRRKAEAERAQRMAKERQEQEEARRKLEEQARAKTQTPPVSPAPQPTEERLPSSPVYEDAASFKAELSYRGPVSGTEPEPVYSMEAADYREASSQQGLAYATEAVYESAEAPGHYPAEDSTYDEYENDLGITAVALYDYQAAGDDEISFDPDDIITNIEMIDDGWWRGVCKGRYGLFPANYVELRQ
# notes: cortactin (CTTN), human; Origene plasmid No. RC223259; the isoform of the clone follows from the catalogue number; also called myc-tagged CTTN; source: plasmid bought: Origene
# Target: T1, Y174A PBF-HA
# Assay: co-IP; myc-tagged CTTN and HA-tagged PBF (WT or Y174A) transfected in MCF-7 and HeLa cells; in HeLa also after 50 nM dasatinib or vehicle
# Details: partners not purified
binder,measurement,value
B1,fold change of binding against WT PBF,> 2 fold
